Test results: paper PMC11050321, “L-Asparaginase Conjugates from the Hyperthermophilic Archaea Thermococcus sibiricus with Improved Biocatalytic Properties” (International Journal of Molecular Sciences, 2024)

Substrate: NC(=O)C[C@H](N)C(=O)O
Assay: purified protein
Assay type: biochemical, Thermococcus sibiricus
Conditions: native unconjugated enzyme, 25 mM borate buffer, pH 8.5 (Table 4; Figure 5 legend says pH 7.5, Methods pH 9.3), 85 °C

B1: TsA (L-asparaginase from Thermococcus sibiricus) (Thermococcus sibiricus MM 739) (protein)
chain: MKKLLIIGTGGTIASAKTEQGYKSVLKIDEILKLAKIKLENGYKIDSTNIMNIDSTLIHPEDWEIIAKEVFKALDDYDGIIITHGTDTLAYTASMLSFMIKNPNKPIVLTGSMLPITENGSDAPRNIRTAIKFAMEDVAGVFVAFMDKIMLGCRTSKVRTLGLNAFMSINYPDVAYVKGEKILYNIPKEKFQPNGSPELDTKYEPRVVVLRVTPGLGGEIIDAVLDAGYKGIVLEGYGAGGLPYRKSNLLSKIKEITPKIPVIMTTQALYDGVDMRKYEVGRKALETGIIPAKDMTKEATITKLMWALGHTKDVEKIREIMHTNYVNEIKS
notes: synthetic gene in pET-28a(+), E. coli BL21(DE3), SP-Sepharose purified (no tag mentioned); gene span 996 nt
  Km: 6.1 ± 1.3 mM
  Vmax: 470 µmol/min/mg
